Assay [1] deals with human FAPα-His tag (Sino biological) (human) (UniProt Q12884). The assay can be described thus: competitive ELISA on coated human FAPα; competitor (detected): FAP-I38-Bio.
The target is the same in assay [2]. The experiment in a line: competitive ELISA on coated human FAPα; competitor (detected): FAPα (BMK)-Bio. A general note: In an ELISA, binding on a coated surface is turned into a signal by an enzyme label.
The target is the same in assay [3]. The experiment in a line: competitive ELISA on coated human FAPα; biotinylated mAb alone, no competing Ab (row '0').
In assay [4] the target is human FAPα on CHO-K1-hFAPα cells (human) (UniProt Q12884). The assay can be described thus: flow cytometry on CHO-K1-hFAPα cells (MFI of PE). More on the design: unit not given beside the values. In general terms: Flow cytometry measures light scatter and fluorescence of single cells or particles in a stream.
human FAPα on CHO-K1-hFAPα cells (human), sequence (Q12884 whole entry): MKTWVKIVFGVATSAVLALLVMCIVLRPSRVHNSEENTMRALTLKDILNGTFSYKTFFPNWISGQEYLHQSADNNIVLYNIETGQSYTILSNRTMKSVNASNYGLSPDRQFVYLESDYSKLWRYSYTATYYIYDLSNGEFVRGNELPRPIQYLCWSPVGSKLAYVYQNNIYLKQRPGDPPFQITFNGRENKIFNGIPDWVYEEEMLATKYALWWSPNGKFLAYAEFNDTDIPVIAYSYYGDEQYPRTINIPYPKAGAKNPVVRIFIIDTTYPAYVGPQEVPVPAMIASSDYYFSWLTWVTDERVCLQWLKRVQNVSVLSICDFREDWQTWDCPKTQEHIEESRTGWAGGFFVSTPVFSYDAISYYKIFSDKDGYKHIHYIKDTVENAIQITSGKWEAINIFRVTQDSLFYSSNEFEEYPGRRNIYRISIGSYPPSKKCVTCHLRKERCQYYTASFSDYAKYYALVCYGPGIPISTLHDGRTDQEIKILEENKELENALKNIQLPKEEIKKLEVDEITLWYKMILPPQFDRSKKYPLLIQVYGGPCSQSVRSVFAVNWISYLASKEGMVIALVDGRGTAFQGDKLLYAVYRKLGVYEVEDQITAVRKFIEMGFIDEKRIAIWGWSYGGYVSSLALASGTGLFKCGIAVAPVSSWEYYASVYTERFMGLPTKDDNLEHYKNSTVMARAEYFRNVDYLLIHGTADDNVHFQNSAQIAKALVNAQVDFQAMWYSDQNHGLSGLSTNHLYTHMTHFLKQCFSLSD
In assay [5] the target is human FAPα-His tag (Sino biological) (human) (UniProt Q12884). The experiment in a line: competitive ELISA on coated human FAPα; competitor (detected): FAP-G14-Bio.
Assay [6] shares this target. The experiment in a line: competitive ELISA on coated human FAPα; competitor (detected): FAP-I30-Bio.
Assay [7] has the same target. The assay can be described thus: SPR (Biacore T200), mAb captured on Protein A chip, human FAPα-His as analyte. A general note: Surface plasmon resonance follows binding to a sensor surface in real time, without labels.
Assay [8] addresses human FAPα on CHO-K1-hFAPα cells (human) (UniProt Q12884). The assay can be described thus: flow cytometry on CHO-K1-hFAPα cells.
Assay [9] has as its target human FAPα-His tag (Sino biological) (human) (UniProt Q12884). The assay can be described thus: competitive ELISA on coated human FAPα; competitor (detected): FAP-J40-Bio.
Assay [10] shares this target. The experiment in a line: ELISA, coated human FAPα-His.
For assay [11] the target is unchanged. The assay can be described thus: competitive ELISA on coated human FAPα; competitor (detected): FAP-I37-Bio.
Assay [12] has the same target. The experiment in a line: competitive ELISA on coated human FAPα; competitor (detected): FAP-G52-Bio.
Assay [13] addresses mouse FAPα-His protein (mouse) (UniProt P97321). The assay can be described thus: ELISA, coated mouse FAPα-His.

human FAPα-His tag (Sino biological) (human), sequence (Q12884 26-760 limits assumed): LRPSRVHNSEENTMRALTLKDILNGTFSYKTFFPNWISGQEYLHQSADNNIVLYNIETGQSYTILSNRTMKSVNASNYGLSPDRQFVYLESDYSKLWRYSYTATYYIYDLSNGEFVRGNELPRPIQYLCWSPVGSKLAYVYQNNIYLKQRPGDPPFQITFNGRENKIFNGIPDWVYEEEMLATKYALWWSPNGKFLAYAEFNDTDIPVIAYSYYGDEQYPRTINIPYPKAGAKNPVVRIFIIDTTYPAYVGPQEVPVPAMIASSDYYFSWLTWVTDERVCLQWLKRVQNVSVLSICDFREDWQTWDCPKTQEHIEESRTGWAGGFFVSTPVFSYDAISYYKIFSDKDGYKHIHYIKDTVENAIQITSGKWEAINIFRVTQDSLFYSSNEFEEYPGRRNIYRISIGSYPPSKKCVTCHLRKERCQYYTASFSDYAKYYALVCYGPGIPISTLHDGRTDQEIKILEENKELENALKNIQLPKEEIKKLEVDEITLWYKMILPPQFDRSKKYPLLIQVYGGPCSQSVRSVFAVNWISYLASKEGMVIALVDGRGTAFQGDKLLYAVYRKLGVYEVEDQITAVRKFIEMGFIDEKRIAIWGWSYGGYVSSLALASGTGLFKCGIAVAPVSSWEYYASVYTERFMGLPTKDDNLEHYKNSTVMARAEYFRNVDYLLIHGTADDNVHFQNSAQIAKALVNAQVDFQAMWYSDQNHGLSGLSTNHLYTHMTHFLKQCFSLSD
mouse FAPα-His protein (mouse), sequence (P97321 26-761 limits assumed): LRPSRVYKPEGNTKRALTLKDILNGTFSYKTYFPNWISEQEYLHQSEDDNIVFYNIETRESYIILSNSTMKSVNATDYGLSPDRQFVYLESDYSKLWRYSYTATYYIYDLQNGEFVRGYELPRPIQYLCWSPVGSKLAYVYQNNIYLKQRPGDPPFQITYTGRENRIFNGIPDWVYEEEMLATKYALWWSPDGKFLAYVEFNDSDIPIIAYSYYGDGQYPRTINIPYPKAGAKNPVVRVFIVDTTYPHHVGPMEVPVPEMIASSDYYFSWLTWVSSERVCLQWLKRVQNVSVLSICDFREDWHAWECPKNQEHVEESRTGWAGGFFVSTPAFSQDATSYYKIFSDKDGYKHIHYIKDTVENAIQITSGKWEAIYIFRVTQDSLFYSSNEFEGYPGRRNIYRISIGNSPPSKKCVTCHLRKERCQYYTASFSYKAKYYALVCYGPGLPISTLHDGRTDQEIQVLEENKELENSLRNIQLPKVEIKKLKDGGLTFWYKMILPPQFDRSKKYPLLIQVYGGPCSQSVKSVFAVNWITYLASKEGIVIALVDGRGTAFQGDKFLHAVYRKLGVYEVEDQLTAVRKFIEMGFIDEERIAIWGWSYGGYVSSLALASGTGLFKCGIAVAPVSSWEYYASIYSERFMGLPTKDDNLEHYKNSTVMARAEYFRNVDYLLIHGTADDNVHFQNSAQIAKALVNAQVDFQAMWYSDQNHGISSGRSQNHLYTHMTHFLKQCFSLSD

As a reminder, the Kd is the free concentration of one partner at which half of the binding sites on the other are occupied at equilibrium, for simple one-to-one binding. One may read the koff as the rate constant with which the complex falls apart. What is called kon is the second-order rate constant of association. The EC50 is the midpoint of the concentration-response curve. For “FAP-4B9 clone from Roche (FAPα-BMK) (antibody)”, the OD 450 nm came out at 0.265 OD 450 nm in [1]; 0.171 OD 450 nm in assay [2]; 1.26 OD 450 nm in [3]; 0.135 OD 450 nm in [5]; 0.155 OD 450 nm in assay [6]; 0.179 OD 450 nm in [9]. For the same substance, the OD 450 nm in [11] was determined as 0.23 OD 450 nm; in assay [12] it was 0.169 OD 450 nm. The Cmax in [4] was determined as 424. The same substance showed an equilibrium dissociation constant (Kd) in assay [7] of 6.94 nM. Besides, the koff in [7] came to 0.000208 s⁻¹. Further, the kon in assay [7] was 30000 M⁻¹ s⁻¹. Further, the EC50 worked out at 0.043 ng/mL in [8], 5.55 ng/mL in assay [10] and 10.3 ng/mL in [13].
